Measurements from article PMC2597415.
Positions count from the first letter of the chain named.

Legend:
[1] = substrate: O=C(CO)[C@H](O)[C@H](O)COP(=O)(O)O; assay: coupled-enzyme spectrophotometric assay of RPE activity; format: biochemical, Escherichia coli; conditions: Co2+ enzyme
[2] = substrate: O=C(CO)[C@H](O)[C@H](O)COP(=O)(O)O; assay: as above; format: biochemical, Streptococcus pyogenes; conditions: Co2+ enzyme

B1: ALSE (D-allulose 6-phosphate 3-epimerase) (Escherichia coli K-12) (protein)
chain: MKISPSLMCMDLLKFKEQIEFIDSHADYFHIDIMDGHFVPNLTLSPFFVSQVKKLATKPLDCHLMVTRPQDYIAQLARAGADFITLHPETINGQAFRLIDEIRRHDMKVGLILNPETPVEAMKYYIHKADKITVMTVDPGFAGQPFIPEMLDKLAELKAWREREGLEYEIEVDGSCNQATYEKLMAAGADVFIVGTSGLFNHAENIDEAWRIMTAQILAAKSEVQPHAKTA
- Km [1]: 3000 ± 300 µM
- kcat [1]: 2 ± 0.8 s⁻¹
- kcat/Km [1]: 670 M⁻¹ s⁻¹

B2: ALSE (D-allulose 6-phosphate 3-epimerase) (Escherichia coli K-12; DEL196-196) (protein)
chain: MKISPSLMCMDLLKFKEQIEFIDSHADYFHIDIMDGHFVPNLTLSPFFVSQVKKLATKPLDCHLMVTRPQDYIAQLARAGADFITLHPETINGQAFRLIDEIRRHDMKVGLILNPETPVEAMKYYIHKADKITVMTVDPGFAGQPFIPEMLDKLAELKAWREREGLEYEIEVDGSCNQATYEKLMAAGADVFIVGSGLFNHAENIDEAWRIMTAQILAAKSEVQPHAKTA
- Km [1]: 3900 ± 500 µM
- kcat [1]: 130 ± 7 s⁻¹
- kcat/Km [1]: 33000 M⁻¹ s⁻¹

B3: ALSE (D-allulose 6-phosphate 3-epimerase) (Escherichia coli K-12; DEL198-198) (protein)
chain: B2 chain with S196T, G197S
- Km [1]: 5100 ± 500 µM
- kcat [1]: 440 ± 20 s⁻¹
- kcat/Km [1]: 86000 M⁻¹ s⁻¹

B4: ALSE (D-allulose 6-phosphate 3-epimerase) (Escherichia coli K-12; DEL197-197) (protein)
chain: B2 chain with S196T
- Km [1]: 2800 ± 600 µM
- kcat [1]: 240 ± 14 s⁻¹
- kcat/Km [1]: 85000 M⁻¹ s⁻¹

B5: RPE (D-ribulose 5-phosphate 3-epimerase) (Streptococcus pyogenes serotype M1) (protein)
chain: MSTLKIAPSILAADYANFASELARIEETDAEYVHIDIMDGQFVPNISFGADVVASMRKHSKLVFDCHLMVVDPERYVEAFAQAGADIMTIHTESTRHIHGALQKIKAAGMKAGVVINPGTPATALEPLLDLVDQVLIMTVNPGFGGQAFIPECLEKVATVAKWRDEKGLSFDIEVDGGVDNKTIRACYEAGANVFVAGSYLFKASDLVSQVQTLRTALNV
- Km [2]: 1200 ± 100 µM
- kcat [2]: 3800 ± 160 s⁻¹
- kcat/Km [2]: 3.2e+06 M⁻¹ s⁻¹
